Measurements as given in the supplement of paper PMC9170038.

Test system: MS2 coat protein
Test: apparent KD of MS2 coat protein; designed switch direction (-1 OFF switch, 1 ON switch): -1; higher = weaker reporter binding
Procedure, shortened: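 The apparent KD reported per design is the median over clusters of curve fits to normalised cluster fluorescence. The RNA switches were transcribed on Illumina chips by stalled E. coli RNA polymerase. SNAP-549-labelled MS2 coat protein was titrated from 0.7 or 1.5 nM, doubling up to 3 µM, in Tris-HCl pH 7.5 buffer containing KCl, MgCl2, BSA, DTT, tRNA and Tween-20, with no input, 200 uM small-molecule ligand, or an oligonucleotide input.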

[1] = input ligand: microRNA oligo, concentration not stated
[2] = Eterna round: R95, input ligand: microRNA oligo, concentration not stated
[3] = Eterna round: R95, input ligand: FMN 200 uM
[4] = Eterna round: R95, input ligand: none

Sequence	apparent KD of MS2 coat protein [1]	apparent KD of MS2 coat protein (input ligand: FMN 200 uM)	apparent KD of MS2 coat protein (input ligand: none)	apparent KD of MS2 coat protein [2]	apparent KD of MS2 coat protein [3]	apparent KD of MS2 coat protein [4]
GGUACUCAAAGAGUACCAAUACGAACAUGAGGAUCACCCAUGUAGGAUAUGCUACUCAAAGAGUAGCAGAAGGACGUGUACCUU [Far Half Aptamer v1] (Eterna round: R96, puzzle: Exclusion NG 3)	18.5 nM					
CUCCAGCAAGGAUAUACGUGUCUAAGAAGAGGUCUUAUGCUACAUGAGGAUCACCCAUGUAGAAGGUGCGGACA [EX2 C.2] (Eterna round: R97, puzzle: Exclusion 2)		14.4 nM	15.4 nM			
GAGGAGCAAGGAUAUACGAGGAUAUGGUAGGUUGGAGAGUGACAUGAGGAUCACCCAUGUAGAAGGUGCGAGGG [JR_Exclu2_Sub098] (puzzle: Exclusion 2)				55.5 nM		
CACCGUUACAGAGGAUAUGGCACAUGAGGAUCACCCAUGUAAUAAAUGAGAAUUUCGGAUGUAUUCCAGAAGGCUGUAACCGGC [Ostricism 68 - Jieux - Exclusion NG 2] (Eterna round: R96, puzzle: Exclusion NG 2)	19 nM	41.2 nM	35.6 nM			
ACCUCACAUGAGGAUCACCCAUGUCAGGAUAUCUUUUAAAACACCAAUCGUGUCGCUGAGAGAAGGGACAUUAA [EX1 #23] (Eterna round: R97, puzzle: Exclusion 1)		20.5 nM	16 nM			
GGGCCCGGAGGAUAUACAAUGGGCCCGGGAAACCGGGUUUUACAUGAGGAUCACCCAUGUAGAAGGCCGGGCCC [-42.8, -38.99 kcal A 24%, 5a,0] (Eterna round: R97, puzzle: Exclusion 2)		15.6 nM	14.6 nM			
GUCAUGUUAGGAUAUCUGACAUGUGACUUCGGUCACUGUCCAGAGAAGGAACAUGAGGAUCACCCAUGUUGGAC [Ex4-3: 55] (puzzle: Exclusion 4)				43.2 nM		
CUGAGUCUAGGAUAUACAUGAGGAUCACCCAUGUAAAGUAGCUUGCGUACAGGCAGAUGUAGAAGGAGAUUCGG [Mod of JL 10 - Jieux - Exclusion 3] (Eterna round: R97, puzzle: Exclusion 3)		33.2 nM	24.6 nM			
CUAAAUCAUGUAGGAUAUGCGUGGCAAAGCUAUGCAGAAGGACAUGAGGAUCACCCAUGUCAUUCCGUCUGCGAACAGACGGGA [Mat - Exclusion NG 1 - Mod of JL - D50] (Eterna round: R96, puzzle: Exclusion NG 1)	15.4 nM	161 nM	20.3 nM			
UUUUUAUAUGAAGGAUAUACUUAACAUGAGGAUCACCCAUGUGGUGUUGUGAGUGAGUGAGUUUAGUAGAAGGUCAAGUAUUUA [JMF's solution 41] (Eterna round: R96, puzzle: Exclusion NG 2)	527 nM	663 nM	380 nM			
AGUCAGUCAGGAUAUCAAAUCCGUGGACCUUACGAUGCGGCUGAGAAGGGACAUGAGGAUCACCCAUGUUGGGU [Eternabot (L2) Solution 27] (Eterna round: R97, puzzle: Exclusion 4)		60.8 nM	66.5 nM			
AAGUAACAUGAGGAUCACCCAUGUUAGGAUAUCUCGGCCACAGGAACGCUGUAAAGCCAGAGAAGGAGCGGGUG [Mabi] (Eterna round: R97, puzzle: Exclusion 1)		156 nM	127 nM			
AUCAUGCAGUAGGAUAUCGAUCCACAAUAUGAACGAGAAGGGCUGACAUGAGGAUCACCCAUGUGCGUCCGAAG [Becebe] (Eterna round: R97, puzzle: Exclusion 6)		16.7 nM	19 nM			
UGAGUGGUGCGAGGAUAUACAUGAGGAUCACCCAUGUAAACGUGUGAGGCUUUGCCUCACACGAUGUAGAAGGCGCACUACUCU [Mat - Exclusion NG 2 - Mod of JL - D13] (Eterna round: R96, puzzle: Exclusion NG 2)	9.36 nM	15.6 nM	13.6 nM			
UAUUAUCAAGCAAGAUCCCACAUGAGGAUCACCCAUGUGCUCGUCUUAUUUCCGGAAUUAUUGGGCUCUCGUCUAAU [JR_STOV1_Sub093] (Eterna round: R97, puzzle: Sensor, turn-off variant 1)		90.1 nM	78.2 nM			
UCAACCAGAGGAUAUGCGCAUAGAUCAGACUUUGUUUCUUAACAUGAGGAUCACCCAUGUAGAAGGCUGUAACC [Ex2 #77] (Eterna round: R97, puzzle: Exclusion 2)		20.3 nM	19.8 nM			
AAAAGGCAGCAGGAUAUAGUCACCAUCGGGUUGCUAGAAGGGCUAACAUGAGGAUCACCCAUGUGGGUGCAAAA [Soinsoan] (puzzle: Exclusion 6)				452 nM	578 nM	667 nM

Sequence	apparent KD of MS2 coat protein [1]	apparent KD of MS2 coat protein (input ligand: FMN 200 uM)	apparent KD of MS2 coat protein (input ligand: none)	apparent KD of MS2 coat protein [2]	apparent KD of MS2 coat protein [3]	apparent KD of MS2 coat protein [4]
AUAACAAGCUUUUUGUUCGUAGAACAUGACGCUCGAGUCACAUGAGGAUCACCCAUGUCAUCCAGAUUGAUAGUUGA [JR_SV3TOV2_Sub059] (puzzle: Sensor v3, turn-off variant 2)				47.3 nM	35.5 nM	44.3 nM
UACAUGAGGAUCACCCAUGUUUUGUCGUGUAUGGUAUUUAUCUAGGAUAUCAAUUUGUUUAAUUAUGAGAAGGAGAAUAUUAAU [JMF's solution 70] (Eterna round: R96, puzzle: Exclusion NG 3)	25.8 nM	34.3 nM	35.6 nM			
GGUGUCUUCAGAAGACAUGAGGAUCACCCAUGUAAAUGCACUGAGGAUAUACGGGCGACCGGCGUGUAGAAGGUAGAGCACGAA [Bivezale] (Eterna round: R96, puzzle: Exclusion NG 3)	8.37 nM	13.7 nM	17.5 nM			
CGUCUGUCGGAAGGAUAUGUAGGGUGUCUUUUCCUCAGUACGAAGUACAUGAGGAUCACCCAUGUACAGAAGGUCCACAAUUAA [Essosoedso] (Eterna round: R96, puzzle: Exclusion NG 2)	67.9 nM	109 nM	75.3 nM			
UAGAUGGGAGGAUAUACGUAGAUACAGAUUCAUGUAGUGCUACAUGAGGAUCACCCAUGUAGAAGGCCCGUCUU [JL-ex2-2.19 Mayanne mod] (puzzle: Exclusion 2)				35.2 nM		
ACAUGAGGAUCACCCAUGUCCGUCUGGUCUGUCUCGGCUGUCGAGGAUAUAGCCCGGUAUCCGCGCUAGAAGGUGGGAGUCGGC [Aenatbe mod 98] (Eterna round: R96, puzzle: Exclusion NG 3)	28.9 nM	31.4 nM	37.3 nM			
GGUUGGCGAGGAUAUACAUGAGGAUCACCCAUGUGAGAGAAGAAAGUGAGAACGAAAAGUAGAAGGCGCUGACG [salish99_ex3_r3_060] (puzzle: Exclusion 3)				43.8 nM	2.08 nM	90.2 nM
UUAGCGUAUGUAAGGAUAUGCUGGUCUAAUGAUCAGCAGAAGGUACAUGAGGAUCACCCAUGUGGAUUCGUUAU [Mod of JL 8 - Jieux - Brourd's mod of Exclusion 4] (Eterna round: R97, puzzle: Brourd's mod of Exclusion 4)		327 nM	30 nM			
AACGUCUAGGUAGGAUAUCCACCAACAGGUGGAAGGAUAUGGAAACAGAAGGUUCGCCAACAGGCGGAGAAGGACCUACGCGUA [pwkr exNG2 2xF7 2xFMN.25] (Eterna round: R96, puzzle: Exclusion NG 2)	162 nM	50.4 nM	387 nM			
UCUUUCAUUGUGAGGAUAUGCCCAAAUAAAAGCGGGCAGAAGGCACAUGAGGAUCACCCAUGUCCUGCGGUUAU [salish99_bmx4_r4_150] (Eterna round: R97, puzzle: Brourd's mod of Exclusion 4)		357 nM	56.9 nM			
CCGGAAUUGGAGGAUAUAGGAGUCGAUAGACACCUAGAAGGUCAGACAUGAGGAUCACCCAUGUGUCCUACCGG [Fiskers Ex 6 - 87] (puzzle: Exclusion 6)				18.3 nM	19.9 nM	17.8 nM
CGUCUGUAAGGAUAUGGUUGCAUCAACAUGAGGAUCACCCAUGUAACUUGGGACUAGUGAUUAGAAGGUACGAACG [EX5 #59] (Eterna round: R97, puzzle: Exclusion 5)		218 nM	255 nM			
CAUUUGUAAGGAUAUGCACCGAUCUCCGAAAGGAGAUCGGUGCAGAAGGUACAUGAGGAUCACCCAUGUUGAUG [Mod of Brourd 11 - Jieux - Exclusion 4] (Eterna round: R97, puzzle: Exclusion 4)		218 nM	33.6 nM			
GUGAAACAUGAGGAUCACCCAUGUCAGGAUAUGCAUCCAGUUCACCUAUAAAGACGGUGUAGAAGGGACAAUAA [Eternabot (Original) Solution 7] (Eterna round: R97, puzzle: Exclusion 1)		22.4 nM	21.3 nM			
AAUUCGAGAGGAUAUACAGGUGAUAUGUAGAAGCCUCGAGCACAUGAGGAUCACCCAUGUAGAAGGCUCAUAUA [EX2 A.11] (Eterna round: R97, puzzle: Exclusion 2)		262 nM	29.6 nM			
UGUACUAACACGGAAGUGUUAGUACUAUAAGCUUGUGUUACAUGAGGAUCACCCAUGUCCUCAUAAGCUCGUCUUAA [Mat - Sensor v3 - Turn-off var 2 - D73] (puzzle: Sensor v3, turn-off variant 2)				198 nM	43.3 nM	41 nM
